In EP4707393A1, “DOUBLE-STRANDED SIRNA, CONJUGATE THEREOF AND USE THEREOF” (CMS Research & Development Pte. Ltd., priority 2023, dated 2024):
pEC50: −log10 of the molar value.

Tests used:
[1] = test system: human LPA gene (Genbank number: NM_005577.4); assay: Inhibitory activity against LPA mRNA, psiCHECK-2 dual-luciferase reporter vector in Huh7 cells; assay type: cell-based; conditions: Huh7 cells transfected with LPA_psiCHECK-2 plasmid, RNAiMAX transfection
Protocol: A stock solution was prepared by dissolving in PBS and stored at -20 °C.
The human LPA gene (Genbank number: NM_005577.4) was cloned into the psiCHECK™-2 vector.
Huh7 cells were cultured in DMEM (Gibco-11995-065, 500 mL) medium, supplemented with FBS (ExCellBio-FSP500, 57 mL), Penicillin-Streptomycin solution (Hyclone-SV30010, 5.7 mL), GlutaMAX™ (Gibco-35050-061, 5.7 mL) and Non-Essential Amino Acids Solution (Gibco-11140050, 5.7 mL).
On Day 1, a method for transfection of the LPA_PSICHECK (TM)-2 plasmid is briefly described as follows: Huh7 cells were washed with DPBS, followed by digestion with 0.05% trypsin, gently pipetted into single cells in DMEM containing 10% FBS, and counted. Plasmid DNA was transferred into Huh7 cells using Fugene HD. The transfected cells were seeded into 96-well plates at a density of 10,000 cells per well, with 100 µL culture medium per well. The cells were incubated overnight in a 5% CO2 incubator at 37 °C.
On Day 2, the test compounds were diluted serially with PBS to 3 concentrations.
RNAiMAX transfection reagent was prepared by blending homogeneously with Opti-MEM at a ratio of RNAiMAX: Opti-MEM=3:47 in a 15 mL centrifuge tube as needed. The compounds were mixed with the RNAiMAX/Opti-MEM (1:1) and incubated for 15 min. The compound-containing RNAiMAX/Opti-MEM mixture was diluted 10-fold with fresh medium and blended homogeneously.
The medium in each well was aspirated, and then 100 µL of the fresh compound-containing medium was added, and then incubated in a 5% CO2, 37 °C incubator.
Experimental procedures refer to DUAL-GLO® Dual Luciferase Assay System instructions, briefly described as follows: Taking out the cells from the incubator, aspirating and discarding the supernatant, adding 75µL fresh culture medium and 75µL detection reagent, shaking for 10 minutes in the dark, and after the cells had been fully lysed, transfering100µL sample to an opaque whiteboard for detecting the Firefly luminescence signal; adding 50 µL Dual-Glo®Stop & Glo® test reagent to each well and detecting the Renilla luciferase signal after shaking for 10 minutes in the dark. The ratio of the reporter signal to the internal control reporter signal was calculated for each well.
[formula] % Inhibition = (1-Sampleratio/RNAiMAXcontrolratio) × 100% [formula]

[2] = test system: hPBMCs; assay: Immunogenicity test in hPBMCs (IL-6 and TNF-α ELISA of supernatant); assay type: cell-based, human; conditions: donor 1 hPBMCs, 18-20 h
Protocol: 1 Experimental material • 1.1 Double-stranded siRNA conjugates • 1.2 hPBMCs, purchased from Shanghai Sailybio Medical Co., LTD. • 1.3 Main reagents: Penicillin-Streptomycin (Cat. No.: 15140122), RNase-free water (Cat. No.: AM9938), IL-6 ELISA kit (Cat. No.: 555220), TNF-α ELISA kit (Cat. No.: 555212), LPS (Cat. No.: L2630), etc. 2 Experimental method • 2.1 Compound Preparation: Compounds were prepared as stock solutions with enzyme-free water. Compound weight = powder weight * purity. The concentration of prepared solutions was 900 µg/mL, followed by three-fold serial dilution with enzyme-free water. Each concentration was diluted 10-fold with 1640 medium, resulting in a final enzyme-free water content of 5.0%. • 2.2 Experimental procedure: • 2.2.1 PBMC cells were resuscitated one day in advance and incubated overnight in 1640 complete medium. • 2.2.2 On the day of the experiment, PBMC cells were centrifuged at 300 × g for 8 minutes, and the cell density was adjusted to 1.6 × 10^6 mL with 1640 complete medium. The cells were then added to a 96-well plate, 125 µL per well, and incubated in a 37 °C, 5% CO2 incubator for 15 minutes. • 2.2.3 The diluted test compounds were added to the 96-well plate according to the plate map, all in duplicate, 125 µL for each well; the positive control group and the blank group were added with an equal volume of 1640 complete culture medium containing the same amount of enzyme-free water. • 2.2.4 After gently shaking, the well plates were incubated in an incubator at 37 °C for 18-20 h. The supernatant was collected by centrifugation, and secretions of TNF-α and IL-6 were detected by ELISA. • 2.2.5 Data were analyzed using GraphPad Prism 8 software. 3 Experimental results Table 10. IL-6 and TNF-α levels in the cell supernatant of donor 1 hPBMCs treated with different doses of test compounds

Substance | pEC50 [1] | IL-6 ([2]; 5 µg/mL) [pg/mL] | TNF alpha ([2]; 5 µg/mL) [pg/mL] | IL-6 ([2]; 15 µg/mL) [pg/mL] | TNF alpha ([2]; 15 µg/mL) [pg/mL] | IL-6 ([2]; 45 µg/mL) [pg/mL] | TNF alpha ([2]; 45 µg/mL) [pg/mL]
Z1: siRNA conjugate: sense SEQ ID NO:27, ligand D08 at 3' end of sense strand, antisense SEQ ID NO:56 (sense CCCTTATTGTTATACG; antisense ATCCCTCGTANAACAATAAGGGGCTGTT; 2'-OMe/2'-F modified, ligand at sense 3' end, full pattern not given here) | 9.92 |  |  |  |  |  | 
Z2: siRNA conjugate: sense SEQ ID NO:28, ligand D08 at 3' end of sense strand, antisense SEQ ID NO:56 (sense CCCCTTATTGTTATAC; antisense ATCCCTCGTANAACAATAAGGGGCTGTT; 2'-OMe/2'-F modified, ligand at sense 3' end, full pattern not given here) | 9.32 |  |  |  |  |  | 
Z6: siRNA conjugate: sense SEQ ID NO:27, ligand D08 at 3' end of sense strand, antisense SEQ ID NO:57 (sense CCCTTATTGTTATACG; antisense TCGTANAACAATAAGGGGCTGTT; ligand D08 at sense 3' end; listed as RNA; modified_base 1..2: mod_base = OTHER; note = 2'-O-methylcytidine; modified_base 3: mod_base = OTHER; modified_base 4: mod_base = OTHER; note = 2'-O-methyluridine; modified_base 5: mod_base = OTHER; note = 2'-fluorou; modified_base 1: mod_base = OTHER; note = E-type vinylphosphonate-modified 2'-O-methyluridine; modified_base 2: mod_base = OTHER; note = 2'-fluorocytidine; note = 2'-O-methylguanosine; modified_base 4: mo) | 9.38 |  |  |  |  |  | 
Z7: siRNA conjugate: sense SEQ ID NO:27, ligand D08 at 3' end of sense strand, antisense SEQ ID NO:58 (sense CCCTTATTGTTATACG; antisense TCGTANAACAATAAGGGGCTGTT; ligand D08 at sense 3' end; listed as RNA; modified_base 1..2: mod_base = OTHER; note = 2'-O-methylcytidine; modified_base 3: mod_base = OTHER; modified_base 4: mod_base = OTHER; note = 2'-O-methyluridine; modified_base 5: mod_base = OTHER; note = 2'-fluorou; modified_base 1: mod_base = OTHER; modified_base 2: mod_base = OTHER; note = 2'-fluorocytidine; note = 2'-O-methylguanosine) | 8.62 |  |  |  |  |  | 
Z38: siRNA conjugate: sense SEQ ID NO:49, ligand D01 at 3' end of sense strand, antisense SEQ ID NO:77 (sense CAGCCCCTTATTGTTATACGA; antisense NCGTATNACAATAAGGGGCNGTT; ligand D01 at sense 3' end; listed as RNA; modified_base 1: mod_base = OTHER; note = 2'-O-methylcytidine; modified_base 2: mod_base = OTHER; note = 2'-O-methyladenosine; modified_base 3: mod_base = OTHER; note = 2'-O-methylguanosine; modified_base 4..7: mod_base = OTHER; note = 2'-O-me; note = n is mDVPU; note = 2'-deoxycytidine; modified_base 4: mod_base = OTHER; note = 2'-O-methyluridine;) |  | 1281.4 | 33.5 | 1257.1 | 34.8 | 1268.3 | 34.4
Z39: siRNA conjugate: sense SEQ ID NO:49, ligand D21 at 3' end of sense strand, antisense SEQ ID NO:77 (sense CAGCCCCTTATTGTTATACGA; antisense NCGTATNACAATAAGGGGCNGTT; ligand D21 at sense 3' end; listed as RNA; modified_base 1: mod_base = OTHER; note = 2'-O-methylcytidine; modified_base 2: mod_base = OTHER; note = 2'-O-methyladenosine; modified_base 3: mod_base = OTHER; note = 2'-O-methylguanosine; modified_base 4..7: mod_base = OTHER; note = 2'-O-me; note = n is mDVPU; note = 2'-deoxycytidine; modified_base 4: mod_base = OTHER; note = 2'-O-methyluridine;) |  | 1333.6 | 31.4 | 1304.8 | 32.6 | 1297.0 | 33.3
Z44: siRNA conjugate: sense SEQ ID NO:51, ligand D01 at 3' end of sense strand, antisense SEQ ID NO:82 (sense CCTGCCAAGCTTGGTCATCTA; antisense NAGATGNCCAAGCTTGGCNGGTT; ligand D01 at sense 3' end; listed as RNA; modified_base 1..2: mod_base = OTHER; note = 2'-O-methylcytidine; modified_base 3: mod_base = OTHER; note = 2'-O-methyluridine; modified_base 4: mod_base = OTHER; note = 2'-O-methylguanosine; modified_base 5..6: mod_base = OTHER; note = 2'-O-m; modified_base 1: mod_base = OTHER; note = n is mDVPU; modified_base 2: mod_base = OTHER; note = 2'-deoxyadenosine; note = 2'-O-methyladenosi) |  | 1326.7 | 34.6 | 1331.0 | 35.2 | 1354.7 | 35.8
Z45: siRNA conjugate: sense SEQ ID NO:50, ligand D01 at 3' end of sense strand, antisense SEQ ID NO:82 (sense CCTGCCAAGCTTGGTCATCTA; antisense NAGATGNCCAAGCTTGGCNGGTT; ligand D01 at sense 3' end; listed as RNA; modified_base 1..2: mod_base = OTHER; note = 2'-O-methylcytidine; modified_base 3: mod_base = OTHER; note = 2'-O-methyluridine; modified_base 4: mod_base = OTHER; note = 2'-O-methylguanosine; modified_base 5..6: mod_base = OTHER; note = 2'-O-m; modified_base 1: mod_base = OTHER; note = n is mDVPU; modified_base 2: mod_base = OTHER; note = 2'-deoxyadenosine; note = 2'-O-methyladenosi) |  | 1327.5 | 35.3 | 1321.5 | 35.1 | 1321.4 | 34.9
